Results from patent US20200392228A1 (PANDION OPERATIONS, published 2020).
Changes are numbered by the printed parent chain. One block for each binder: values may come before it.

Tests used:
[1] = target: T1, human MAdCAM expressed on cells (human, UniProt Q13477 19-382); experiment: cell binding
T1 construct: whole, on cells; also called MADCAM1
T1 sequence (looked up): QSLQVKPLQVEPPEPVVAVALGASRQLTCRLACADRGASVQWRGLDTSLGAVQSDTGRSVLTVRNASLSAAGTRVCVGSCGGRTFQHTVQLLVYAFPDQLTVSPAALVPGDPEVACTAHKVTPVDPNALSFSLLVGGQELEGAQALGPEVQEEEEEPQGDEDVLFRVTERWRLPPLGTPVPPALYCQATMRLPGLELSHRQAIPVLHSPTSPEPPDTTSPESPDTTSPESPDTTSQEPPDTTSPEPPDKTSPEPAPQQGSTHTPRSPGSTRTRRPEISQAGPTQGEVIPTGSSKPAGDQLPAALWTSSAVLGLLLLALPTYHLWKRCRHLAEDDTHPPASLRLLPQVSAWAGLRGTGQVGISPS

[2] = target: T2, mouse MAdCAM expressed on cells (mouse, UniProt Q61826 22-405); experiment: cell binding
T2 construct: whole, on cells
T2 sequence (looked up): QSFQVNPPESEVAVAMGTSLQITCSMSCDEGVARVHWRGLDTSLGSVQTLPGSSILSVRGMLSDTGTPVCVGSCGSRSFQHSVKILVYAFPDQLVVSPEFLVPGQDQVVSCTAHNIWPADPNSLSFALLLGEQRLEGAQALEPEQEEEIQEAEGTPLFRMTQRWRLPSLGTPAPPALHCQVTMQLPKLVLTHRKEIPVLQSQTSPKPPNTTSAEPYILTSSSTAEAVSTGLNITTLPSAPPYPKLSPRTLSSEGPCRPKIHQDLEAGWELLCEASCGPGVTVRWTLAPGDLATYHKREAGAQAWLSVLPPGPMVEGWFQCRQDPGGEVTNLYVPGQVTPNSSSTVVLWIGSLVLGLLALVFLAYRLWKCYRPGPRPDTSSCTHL

binding result [1]: binds | binding result [2]: no binding
B1: MAdCAM antibody Clone ID 13 of Table 6 (scFv) (scFv)
scFv: EVQLLESGGGLVQPGGSLRLSCAASGFTFDDYAMHWVRQAPGKGLEWVSYIDASGTTIYYADSVKGRFTISRDNSKNTLYLQMNSLRAEDTAVYYCAKDQAAAGYWYFDLWGRGTLVTVSSGGGGSGGGGSGGGGSGGGGSDIQMTQSPSSLSASVGDRVTITCQASQDISNYLNWYQQKPGKAPKLLIYKASTLESGVPSRFSGSGSGTDFTLTISSLQPEDFATYYCQQSYSTPITFGQGTRLEIK

binding result [1]: binds | binding result [2]: no binding
B2: MAdCAM antibody Clone ID 57 of Table 6 (scFv) (scFv)
scFv: QVQLVQSGAEVKKPGASVKVSCKASGYTFTSYYMHWVRQAPGQGLEWMGIINPSGGSTSYAQKFQGRVTMTRDTSTSTVYMELSSLRSEDTAVYYCARDSVAGTGGRYYGMDVWGQGTLVTVSSGGGGSGGGGSGGGGSGGGGSDIQMTQSPSSLSASVGDRVTITCRASQGISNYFAWYQQKPGKAPKLLIYAASSLQGGVPSRFSGSGSGTDFTLTISSLQPEDFATYYCQQSYSLPYTFGQGTKLEIK

binding result [1]: binds | binding result [2]: no binding
B3: MAdCAM antibody Clone ID 52 of Table 6 (scFv) (scFv)
scFv: EVQLLESGGGLVQPGGSLRLSCAASGFTFSNSDMNWVRQAPGKGLEWVAHIWNDGSQKYYADSVKGRFTISRDNSKNTLYLQMNSLRAEDTAVYYCARDRTDPGYSSAMDVWGQGTTVTVSSGGGGSGGGGSGGGGSGGGGSDIQMTQSPSSLSASVGDRVTITCRASQDIRNYLGWYQQKPGKAPKLLIYDASSLETGVPSRFSGSGSGTDFTLTISSLQPEDFATYYCQQATSLPLTFGGGTKVEIK

binding result [1]: binds | binding result [2]: no binding
B4: MAdCAM antibody Clone ID 10 of Table 6 (scFv) (scFv)
scFv: QVQLVQSGAEVKKPGASVKVSCKASGYTLTTWYMYWVRQAPGQGLEWMGWINPNRGATNYAQKFQGRVTMTRDTSTSTVYMELSSLRSEDTAVYYCAKGDLWGAMDVWGQGTLVTVSSGGGGSGGGGSGGGGSGGGGSDIQMTQSPSSLSASVGDRVTITCRASDNIGSWLAWYQQKPGKAPKLLIYAASSLQSGVPSRFSGSGSGTDFTLTISSLQPEDFATYYCQQGYSTPPTFGQGTKVEIK

binding result [1]: binds | binding result [2]: no binding
B5: MAdCAM antibody Clone ID 26 of Table 6 (scFv) (scFv)
scFv: B4 scFv with L113T

binding result [1]: binds | binding result [2]: no binding
B6: MAdCAM antibody Clone ID 54 of Table 6 (scFv) (scFv)
scFv: EVQLLESGGGLVQPGGSLRLSCAASGFTFGDYAMSWVRQAPGKGLEWVAVVSYDGTNKYYADSVKGRFTISRDNSKNTLYLQMNSLRAEDTAVYYCAKDICSSTSCYFDLWGRGTLVTVSSGGGGSGGGGSGGGGSGGGGSDIQMTQSPSSLSASVGDRVTITCRASQNINNYVNWYQQKPGKAPKLLIYDASNLETGVPSRFSGSGSGTDFTLTISSLQPEDFATYYCQQANSFPPTFGQGTRLEIK

binding result [1]: binds | binding result [2]: no binding
B7: MAdCAM antibody Clone ID 14 of Table 6 (scFv) (scFv)
scFv: QVQLVQSGAEVKKPGSSVKVSCKASGYTFTDYHIHWVRQAPGQGLEWMGGIVPRSGSTTYAQKFQGRVTITADESTSTAYMELSSLRSEDTAVYYCAKDESSGWYYFDYWGQGTLVTVSSGGGGSGGGGSGGGGSGGGGSDIVMTQSPLSLPVTPGEPASISCRSSQSLLHSNGYNYLDWYLQKPGQSPQLLIYSAYNRASGVPDRFSGSGSGTDFTLKISRVEAEDVGVYYCMQALQTPLTFGQGTKVEIK

binding result [1]: binds | binding result [2]: no binding
B8: MAdCAM antibody Clone ID 11 of Table 6 (scFv) (scFv)
scFv: QVQLVQSGAEVKKPGASVKVSCKASGYTFTTYYMHWVRQAPGQGLEWMGGFDPEDGETIYAQKFQGRVTMTRDTSTSTVYMELSSLRSEDTAVYYCARHAVAGAVGAGYYYYGMDVWGQGTMVTVSSGGGGSGGGGSGGGGSGGGGSDIQMTQSPSSLSASVGDRVTITCRASESISNWLAWYQQKPGKAPKLLIYAASTLQSGVPSRFSGSGSGTDFTLTISSLQPEDFATYYCQQSYSVPFTFGPGTKVDIK

binding result [1]: binds | binding result [2]: no binding
B9: MAdCAM antibody Clone ID 53 of Table 6 (scFv) (scFv)
scFv: QVQLVQSGAEVKKPGASVKVSCKASGYTFTSYDINWVRQAPGQGLEWMGWMNPNSGNTGYAQKFQGRVTMTRDTSTSTVYMELSSLRSEDTAVYYCAKDSDYSNLLWDYWGQGTLVTVSSGGGGSGGGGSGGGGSGGGGSDIQMTQSPSSLSASVGDRVTITCRASQDITNDLGWYQQKPGKAPKLLIYQASSLESGVPSRFSGSGSGTDFTLTISSLQPEDFATYYCQQSYTIPLTFGQGTKVEIK

binding result [1]: binds | binding result [2]: no binding
B10: MAdCAM antibody Clone ID 55 of Table 6 (scFv) (scFv)
scFv: QVQLVQSGAEVKKPGASVKVSCKASGYTFTSYYMHWVRQAPGQGLEWMGIIDPSGGSTSYAQKFQGRVTMTRDTSTSTVYMELSSLRSEDTAVYYCAREEWSSGGVGYFDYWGQGTLVTVSSGGGGSGGGGSGGGGSGGGGSDIQMTQSPSSLSASVGDRVTITCRASQGISSYLAWYQQKPGKAPKLLIYATSSLQTGVPSRFSGSGSGTDFTLTISSLQPEDFATYYCQQTYSIPITFGQGTRLEIK

binding result [1]: binds | binding result [2]: no binding
B11: MAdCAM antibody Clone ID 15 of Table 6 (scFv) (scFv)
scFv: QVQLVQSGAEVKKPGSSVKVSCKASGYTFTNYYMHWVRQAPGQGLEWMGGIIPIVDRVKYAQKFQGRVTITADESTSTAYMELSSLRSEDTAVYYCAKGRYTVNYYYGMDVWGQGTTVTVSSGGGGSGGGGSGGGGSGGGGSDIQMTQSPSSLSASVGDRVTITCQANQDISNYLNWYQQKPGKAPKLLIYRASKLEAGVPSRFSGSGSGTDFTLTISSLQPEDFATYYCQQSSEIPYSFGQGTKLEIK

binding result [1]: binds | binding result [2]: no binding
B12: MAdCAM antibody Clone ID 58 of Table 6 (scFv) (scFv)
scFv: QVQLVQSGAEVKKPGASVKVSCKASGYTFTGYYMHWVRQAPGQGLEWMGIINPSGGNTKYAQKFQGRVTMTRDTSTSTVYMELSSLRSEDTAVYYCTTADYYYYMDVWGKGTTVTVSSGGGGSGGGGSGGGGSGGGGSDIQMTQSPSSLSASVGDRVTITCRASQGISNYLAWYQQKPGKAPKLLIYAASSLQSGVPSRFSGSGSGTDFTLTISSLQPEDFATYYCQQYYSNADFGQGTKVEIK

binding result [1]: binds | binding result [2]: no binding
B13: MAdCAM antibody Clone ID 8 of Table 6 (scFv) (scFv)
scFv: EVQLLESGGGLVQPGGSLRLSCAASGFMFGDYAMHWVRQAPGKGLEWVSAISGSGGSTYYADSVKGRFTISRDNSKNTLYLQMNSLRAEDTAVYYCAKDLVVAGIWYFDLWGRGTLVTVSSGGGGSGGGGSGGGGSGGGGSDIQMTQSPSSLSASVGDRVTITCRASQGISNNLNWYQQKPGKAPKLLIYDASSLESGVPSRFSGSGSGTDFTLTISSLQPEDFATYYCQQTHSFPSTFGQGTKLEIK

binding result [1]: binds | binding result [2]: no binding
B14: MAdCAM antibody Clone ID 50 of Table 6 (scFv) (scFv)
scFv: QVQLVQSGAEVKKPGASVKVSCKASGYTFTSYDINWVRQAPGQGLEWMGWINPNSGTTGYAQKFQGRVTMTRDTSTSTVYMELSSLRSEDTAVYYCARSPYYYYGMDVWGQGTTVTVSSGGGGSGGGGSGGGGSGGGGSDIQMTQSPSSLSASVGDRVTITCRASHFISRWVAWYQQKPGKAPKLLIYAASTLQSGVPSRFSGSGSGTDFTLTISSLQPEDFATYYCQQSYSGISFGPGTKVDIK

binding result [1]: binds | binding result [2]: no binding
B15: MAdCAM antibody Clone ID 49 of Table 6 (scFv) (scFv)
scFv: QVQLVQSGAEVKKPGASVKVSCKASGDTFTGYYIHWVRQAPGQGLEWMGWINPNSGGTNYAQKFQGRVTMTRDTSTSTVYMELSSLRSEDTAVYYCARSGLWLGSYYGMDVWGQGTLVTVSSGGGGSGGGGSGGGGSGGGGSDIQMTQSPSSLSASVGDRVTITCRASQTISIWLAWYQQKPGKAPKLLIYDASTLQSGVPSRFSGSGSGTDFTLTISSLQPEDFATYYCQQYSSYPLTFGQGTKVEIK

binding result [1]: binds | binding result [2]: no binding
B16: MAdCAM antibody Clone ID 16 of Table 6 (scFv) (scFv)
scFv: EVQLLESGGGLVQPGGSLRLSCAASGFTFEDYAMHWVRQAPGKGLEWVSYLNSDGGSTSYADSVKGRFTISRDNSKNTLYLQMNSLRAEDTAVYYCAKDYCTNGVCAFDYWGQGTLVTVSSGGGGSGGGGSGGGGSGGGGSDIQMTQSPSSLSASVGDRVTITCRASQSISTYLNWYQQKPGKAPKLLIYDASNLETGVPSRFSGSGSGTDFTLTISSLQPEDFATYYCQQSYTIPITFGQGTRLEIK

binding result [1]: binds | binding result [2]: no binding
B17: MAdCAM antibody Clone ID 51 of Table 6 (scFv) (scFv)
scFv: EVQLLESGGGLVQPGGSLRLSCAASGFTFNNYGMNWVRQAPGKGLEWVSRINSDGSSTSYADSVKGRFTISRDNSKNTLYLQMNSLRAEDTAVYYCARGAYYYYYMDVWGQGTLVTVSSGGGGSGGGGSGGGGSGGGGSEIVMTQSPATLSVSPGERATLSCRASQSVSGSYLAWYQQKPGQAPRLLIYATSSRASGIPARFSGSGSGTEFTLTISSLQSEDFAVYYCQQYYSGLTFGQGTKVEIK
